Results: article PMC5878720

Biological target: T1, IL-11Rα (human (endogenous in RA ST fibroblasts and HUVECs)) (UniProt Q14626)
T1 sequence: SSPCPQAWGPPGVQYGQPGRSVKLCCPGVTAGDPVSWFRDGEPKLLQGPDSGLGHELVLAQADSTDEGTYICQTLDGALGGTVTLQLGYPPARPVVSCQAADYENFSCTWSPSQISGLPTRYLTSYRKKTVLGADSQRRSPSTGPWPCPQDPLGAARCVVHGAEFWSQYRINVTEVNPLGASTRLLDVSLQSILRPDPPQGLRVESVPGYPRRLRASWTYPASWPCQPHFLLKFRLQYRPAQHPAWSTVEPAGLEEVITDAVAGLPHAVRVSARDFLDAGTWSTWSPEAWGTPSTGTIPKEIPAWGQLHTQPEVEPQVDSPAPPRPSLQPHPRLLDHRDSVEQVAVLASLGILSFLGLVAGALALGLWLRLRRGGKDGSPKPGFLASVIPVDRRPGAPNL

- HUVEC transwell migration, 24h, IL-11 1-100 ng/ml, fold over control: 3 to 15 fold
B1: IL-11 (ligand)
chain: PGPPPGPPRVSPDPRAELDSTVLLTRSLLADTRQLAAQLRDKFPADGDHNLDSLPTLAMSAGALGALQLPGVLTRLRADLLSYLRHVQWLRRAGGSSLKTLEPELGTLQARLDRLLRRLQLLMSRLALPQPPPDPPAPPLAPPSSAWGGIRAAHAILGGLHLTLDWAVRGLLLLKTRL
